The target of assay [1] is T1, HLA-PEPTIDE target A*01:01_… (G2) on cells (human).
T1 construct: whole, on cells; also recovered from cell lysates in the IP-MS experiment; also called G2 pHLA; G2 target
The experiment in a line: flow cytometry, A375 cells expressing the CT83 pHLA 9-mer. (A flow cytometer gives signals particle by particle.)
Description: (§1) A375 transduced with luciferase alone served as the negative control. […] Binding was determined by flow cytometery using an anti IgG-PE antibody for detection.

Assay [2] deals with T1, HLA-PEPTIDE target A*01:01_… (G2) on …. The assay can be described thus: flow cytometry, anti IgG PE, A375 9mer cells (1e6 copies per cell).
Description: as §1
The target in the next assay is T2, CD3 on CD3+ Jurkat cells (human, UniProt P07766 23-207).
T2 construct: whole, on cells
The assay can be described thus: flow cytometry, anti IgG PE, CD3+ Jurkat cells.

The target of assay [3] is T3, G5 pHLA (HLA-B*35:01 with …) on cells (human).
T3 construct: whole, on cells
The experiment in a line: flow cytometry, anti IgG PE, LN229 G5 9mer cells (4500 copies per cell).

Assay [4] addresses T1, HLA-PEPTIDE target A*01:01_… (G2) on …. The assay can be described thus: flow cytometry, A375 cells engineered to express the G2 peptide.
Description: Tumor cells engineered to express target peptide were harvested, washed in PBS, and stained with eBioscience Fixable Viability Dye eFluor 450 for 15 minutes at room temperature. Following another wash in PBS+1-2% FBS, cells were resuspended with the indicated molecules at varying concentrations and incubated for 1 hour at 4° C. After another wash, PE-conjugated goat anti-human IgG secondary antibody (Jackson ImmunoResearch) was added at 1:100 to 1:200 for 30 minutes at 4° C. After washing in PBS+1-2% FBS, cells were resuspended in PBS+1-2% FBS and analyzed by flow cytometry. Flow cytometric analysis was performed on the Attune NxT Flow Cytometer (ThermoFisher) using the Attune NxT Software. Data was analyzed using FlowJo.
In assay [5] the target is T4, biotinylated refolded G2-pHLA (A*01:01/b2m/…) (human, biotinylated at the C-terminal AviTag).
T4 construct: Soluble complex caught on streptavidin sensors or MSD plates; also called G2-peptide A*01:01/b2m complex; WT
The assay can be described thus: BLI (Octet), biotinylated pHLA on streptavidin sensor, bivalent antibody as analyte (apparent affinity). For orientation: Biolayer interferometry detects binding as a change in optical thickness at a sensor tip.
Excerpt: (§2) The biosensors were then dipped in assay buffer for a baseline. […] The biosensors were finally dipped into wells containing assay buffer to measure the dissociation rate for another 50 seconds. Referencing was completed by having a biosensor with no immobilized ligand dipped into analyte. Kinetic data was processed with Octet™ software using a 1:1 kinetic model with errors within 10%, X² below 3, and R² above 0.9.

Assay [6] deals with T4, biotinylated refolded G2-pHLA …. The assay can be described thus: BLI (ForteBio Octet HTX), biotinylated G2-pHLA captured on streptavidin SAX biosensor, antibody in solution, 1:1 Fit.
Excerpt: as §2
Assay [7] has the same target. The experiment in a line: BLI (ForteBio Octet HTX), biotinylated G2-pHLA captured on streptavidin SAX biosensor, antibody in solution, 1:2 Fit.
Assay [8] has the same target. The experiment in a line: BLI (ForteBio Octet HTX), biotinylated G2-pHLA captured on streptavidin SAX biosensor, antibody in solution, 1:1 kinetic model.
Excerpt: as §2

T2 sequence (P07766 23-207): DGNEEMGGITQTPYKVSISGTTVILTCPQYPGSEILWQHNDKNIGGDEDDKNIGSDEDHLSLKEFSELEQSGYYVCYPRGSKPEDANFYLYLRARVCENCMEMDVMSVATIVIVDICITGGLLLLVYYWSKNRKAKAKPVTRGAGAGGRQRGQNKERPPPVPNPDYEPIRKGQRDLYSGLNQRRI

B1: 43-E07 UCHT1v9 (Format 43 31E07-CD3 bispecific antibody) (bispecific antibody, human IgG1, kappa)
chain: EVQLVESGGGLVQPGGSLRLSCAASGYSFTGYTMNWVRQAPGKGLEWVALINPYKGVSTYNQKFKDRFTISVDKSKNTAYLQMNSLRAEDTAVYYCARSGYYGDSDWYFDVWGQGTLVTVSSGGGGSGGGGSDIQMTQSPSSLSASVGDRVTITCRASQEIRRWLAWYQQKPGKAPKLLIYAASNLQSGVPSRFSGSGSGTDFTLTISSLQPEDFATYYCQQSYSTPYTFGQGTKLEIKGGGGSEPKSSDKTHTCPPCPAPEFEGGPSVFLFPPKPKDTLMISRTPEVTCVVVDVSHEDPEVKFNWYVDGVEVHNAKTKPREEQYNSTYRVVSVLTVLHQDWLNGKEYKCKVSNKALPASIEKTISKAKGQPREPQVYTLPPCREEMTKNQVSLWCLVKGFYPSDIAVEWESNGQPENNYKTTPPVLDSDGSFFLYSKLTVDKSRWQQGNVFSCSVMHEALHNHYTQKSLSLSPGK
heavy: QVQLVQSGAEVKKPGASVKVSCKASGFTFTNYLIHWVRQAPGQGLEWMGWINPNSGGTNYAQRLQGRVTMTRDTSTSTVYMELSSLRSEDTAVYYCARDYGAGNDYWGQGTLVTVSSGGGGSGGGGSDIQMTQSPSSLSASVGDRVTITCRASQDIRNYLNWYQQKPGKAPKLLIYYTSRLESGVPSRFSGSGSGTDYTLTISSLQPEDFATYYCQQGNTLPWTFGQGTKVEIKGGGGSGGGGSQVQLVQSGAEVKKPGASVKVSCKASGFTFTNYLIHWVRQAPGQGLEWMGWINPNSGGTNYAQRLQGRVTMTRDTSTSTVYMELSSLRSEDTAVYYCARDYGAGNDYWGQGTLVTVSSASTKGPSVFPLAPSSKSTSGGTAALGCLVKDYFPEPVTVSWNSGALTSGVHTFPAVLQSSGLYSLSSVVTVPSSSLGTQTYICNVNHKPSNTKVDKRVEPKSCDKTHTCPPCPAPEFEGGPSVFLFPPKPKDTLMISRTPEVTCVVVDVSHEDPEVKFNWYVDGVEVHNAKTKPREEQYNSTYRVVSVLTVLHQDWLNGKEYKCKVSNKALPASIEKTISKAKGQPREPQVCTLPPSREEMTKNQVSLSCAVKGFYPSDIAVEWESNGQPENNYKTTPPVLDSDGSFFLVSKLTVDKSRWQQGNVFSCSVMHEALHNRFTQKSLSLSPGK
light: DIQMTQSPSSLSASVGDRVTITCRASQEIRRWLAWYQQKPGKAPKLLIYAASNLQSGVPSRFSGSGSGTDFTLTISSLQPEDFATYYCQQSYSTPYTFGQGTKLEIKRTVAAPSVFIFPPSDEQLKSGTASVVCLLNNFYPREAKVQWKVDNALQSGNSQESVTEQDSKDSTYSLSSTLTLSKADYEKHKVYACEVTHQGLSSPVTKSFNRGEC
notes: also called 43-E07 hUCHT1v9; 43-31E07-GGGGS-UCHT1v9
By EC50 (read off the curve) is commonly meant the concentration that produces a half-maximal response. Take B1: the “fold increase in binding against 41-E07 UCHT1v9” value in assay [1] was approximately 10 fold. The “EC50 (read off the curve)” value in assay [2] is approximately 0.3 nM.

B2: 41-G5(1C12) UCHT1v9 diabody (bispecific antibody, human IgG1, kappa)
chain: QVQLVQSGAEVKKPGSSVKVSCKASGGTFSNFGVSWLRQAPGQGLEWMGGIIPILGTANYAQKFQGRVTITADESTSTAYMELSSLRSEDTAVYYCATPTNSGYYGPYYYYGMDVWGQGTTVTVSSGGGGSGGGGSDIQMTQSPSSLSASVGDRVTITCRASQSISSWLAWYQQKPGKAPKLLIYAASTLQSGVPSRFSGSGSGTDFTLTISSLQPEDFATYYCQQSYSIPLTFGGGTKVEIKGGGGSEPKSSDKTHTCPPCPAPEFEGGPSVFLFPPKPKDTLMISRTPEVTCVVVDVSHEDPEVKFNWYVDGVEVHNAKTKPREEQYNSTYRVVSVLTVLHQDWLNGKEYKCKVSNKALPASIEKTISKAKGQPREPQVYTLPPCREEMTKNQVSLWCLVKGFYPSDIAVEWESNGQPENNYKTTPPVLDSDGSFFLYSKLTVDKSRWQQGNVFSCSVMHEALHNHYTQKSLSLSPGK
heavy: QVQLVQSGAEVKKPGSSVKVSCKASGGTFSNFGVSWLRQAPGQGLEWMGGIIPILGTANYAQKFQGRVTITADESTSTAYMELSSLRSEDTAVYYCATPTNSGYYGPYYYYGMDVWGQGTTVTVSSGGGGSGGGGSDIQMTQSPSSLSASVGDRVTITCRASQSISSWLAWYQQKPGKAPKLLIYAASTLQSGVPSRFSGSGSGTDFTLTISSLQPEDFATYYCQQSYSIPLTFGGGTKVEIKGGGGSGGGGSEVQLVESGGGLVQPGGSLRLSCAASGYSFTGYTMNWVRQAPGKGLEWVALINPYKGVSTYNQKFKDRFTISVDKSKNTAYLQMNSLRAEDTAVYYCARSGYYGDSDWYFDVWGQGTLVTVSSASTKGPSVFPLAPSSKSTSGGTAALGCLVKDYFPEPVTVSWNSGALTSGVHTFPAVLQSSGLYSLSSVVTVPSSSLGTQTYICNVNHKPSNTKVDKRVEPKSCDKTHTCPPCPAPEFEGGPSVFLFPPKPKDTLMISRTPEVTCVVVDVSHEDPEVKFNWYVDGVEVHNAKTKPREEQYNSTYRVVSVLTVLHQDWLNGKEYKCKVSNKALPASIEKTISKAKGQPREPQVCTLPPSREEMTKNQVSLSCAVKGFYPSDIAVEWESNGQPENNYKTTPPVLDSDGSFFLVSKLTVDKSRWQQGNVFSCSVMHEALHNRFTQKSLSLSPGK
light: not shown
notes: also called 41-G5(1C12) hUCHT1v9; 41-G5 UCHT1v9
For the molecule B2, the “EC50 (read off the curve)” value (with CD3 on CD3+ Jurkat cells; in assay [3]) was approximately 4 nM each time.

B3: Format 4-G2(1H11) hOKT3a (non-shortened linkers, without DSB) (bispecific antibody, human IgG1, kappa, N297Q)
chain: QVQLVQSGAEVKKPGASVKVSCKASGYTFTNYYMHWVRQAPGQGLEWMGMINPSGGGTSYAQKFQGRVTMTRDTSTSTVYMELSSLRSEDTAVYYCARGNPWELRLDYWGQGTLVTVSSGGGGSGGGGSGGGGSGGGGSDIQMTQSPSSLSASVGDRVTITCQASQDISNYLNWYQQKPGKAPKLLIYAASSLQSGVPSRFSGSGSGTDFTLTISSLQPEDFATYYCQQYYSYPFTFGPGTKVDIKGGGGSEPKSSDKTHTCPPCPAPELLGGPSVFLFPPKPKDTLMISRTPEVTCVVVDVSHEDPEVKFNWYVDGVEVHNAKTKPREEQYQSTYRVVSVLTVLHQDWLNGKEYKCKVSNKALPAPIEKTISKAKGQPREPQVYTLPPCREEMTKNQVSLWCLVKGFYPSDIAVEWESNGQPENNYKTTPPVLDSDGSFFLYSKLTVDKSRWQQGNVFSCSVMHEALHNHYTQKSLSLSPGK
heavy: QVQLVQSGAEVKKPGASVKVSCKASGYTFTNYYMHWVRQAPGQGLEWMGMINPSGGGTSYAQKFQGRVTMTRDTSTSTVYMELSSLRSEDTAVYYCARGNPWELRLDYWGQGTLVTVSSGGGGSGGGGSGGGGSGGGGSDIQMTQSPSSLSASVGDRVTITCQASQDISNYLNWYQQKPGKAPKLLIYAASSLQSGVPSRFSGSGSGTDFTLTISSLQPEDFATYYCQQYYSYPFTFGPGTKVDIKGGGGSGGGGSQVQLVQSGAEVKKPGASVKVSCKASGYTFTRYTMHWVRQAPGQGLEWMGYINPSRGYTNYNQKFKDRVTLTTDKSSSTAYMELSSLRSEDTAVYYCARYYDDHYSLDYWGQGTLVTVSSASTKGPSVFPLAPSSKSTSGGTAALGCLVKDYFPEPVTVSWNSGALTSGVHTFPAVLQSSGLYSLSSVVTVPSSSLGTQTYICNVNHKPSNTKVDKRVEPKSCDKTHTCPPCPAPELLGGPSVFLFPPKPKDTLMISRTPEVTCVVVDVSHEDPEVKFNWYVDGVEVHNAKTKPREEQYQSTYRVVSVLTVLHQDWLNGKEYKCKVSNKALPAPIEKTISKAKGQPREPQVCTLPPSREEMTKNQVSLSCAVKGFYPSDIAVEWESNGQPENNYKTTPPVLDSDGSFFLVSKLTVDKSRWQQGNVFSCSVMHEALHNRFTQKSLSLSPGK
light: DIQMTQSPSSLSASVGDRVTITCSASSSVSYMNWYQQKPGKAPKRLIYDTSKLASGVPSRFSGSGSGTDFTLTISSLQPEDFATYYCQQWSSNPFTFGQGTKLEIKRTVAAPSVFIFPPSDEQLKSGTASVVCLLNNFYPREAKVQWKVDNALQSGNSQESVTEQDSKDSTYSLSSTLTLSKADYEKHKVYACEVTHQGLSSPVTKSFNRGEC
notes: In solution a mixture of 2xscFv and diabody conformations; also called G2 Format 4 bispecific; G2(1H11)hOKT3a 2xscFv
In general, EC50 refers to the concentration at which the effect is half-maximal. One may read the koff as the rate constant with which the complex falls apart. In general, kon refers to the rate constant with which the complex forms. Low values mean slower complex formation, high ones faster complex formation. In turn, B3 displayed a concentration for a half-maximal effect (EC50) in assay [4] of 9.8 nM. The Kd in assay [5] is 18 nM; in [6], 30.3 nM; in assay [7] it was 1640 nM. For the same molecule, the koff in assay [6] is 0.0277 s⁻¹; in assay [7], 0.324 s⁻¹; in assay [8] it was 0.00397 s⁻¹. Moreover, the on-rate (kon) is 913000 M⁻¹ s⁻¹ in assay [6] and 198000 M⁻¹ s⁻¹ in assay [7].

The values above are taken from US20260062487A1 (GRITSTONE BIO, published 2026).
